Reference: patent US20140087995A1 (published 2014)
Numbered stars: 1 amine (or outer) side, 2 acyl side, 3 side chain; on linkers, the order of the positions; unused ones are H or OH. Bridge positions count the residues as written; N and C are the ends. Side chains are listed from the residue outwards. Ends that are not written are not given here. * marks the point of attachment. C20 diacid = O=C(O)CCCCCCCCCCCCCCCCCCC(=O)*; γGlu = O=C(O)[C@H](CCC(=O)[*:2])N[*:1]; AEEA = NCCOCCOCC(=O)O

biological target: T1, human calcitonin receptor (human, UniProt P30988 25-474); experiment: SPA competition with 125I-calcitonin, membranes of BHK hCTR cells (Assay VII)
T1 construct: whole, on cells; also called hCTR; hCT
T1 sequence (looked up): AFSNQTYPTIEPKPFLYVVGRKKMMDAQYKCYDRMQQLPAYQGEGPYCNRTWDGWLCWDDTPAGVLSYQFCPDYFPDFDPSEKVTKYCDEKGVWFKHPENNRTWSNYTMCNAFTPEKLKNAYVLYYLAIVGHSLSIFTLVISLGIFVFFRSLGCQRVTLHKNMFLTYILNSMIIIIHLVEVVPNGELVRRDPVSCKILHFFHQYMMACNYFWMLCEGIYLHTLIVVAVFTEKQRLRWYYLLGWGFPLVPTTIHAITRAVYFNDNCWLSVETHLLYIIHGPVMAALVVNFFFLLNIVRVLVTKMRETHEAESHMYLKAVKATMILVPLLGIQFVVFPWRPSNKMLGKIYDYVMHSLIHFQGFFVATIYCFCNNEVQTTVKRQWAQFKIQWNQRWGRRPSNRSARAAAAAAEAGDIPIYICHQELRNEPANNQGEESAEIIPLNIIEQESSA
Protocol: Membranes were prepared in the following way; the cells were rinsed with PBS and incubated with Versene for approximately 5 min before harvesting. The cells were flushed with PBS and the cell-suspension was centrifuged for 5 min at 1000 rpm. Cells were homogenized (Ultrathurrax) in a buffer containing 20 mM Na-HEPES and 10 mM EDTA (pH 7.4) and centrifuged at 20.000 rpm for 15 min. The resulting pellet was resuspended, homogenized and centrifuged (20.000 rpm, 15 min) in a buffer containing 20 mM Na-HEPES and 0.1 mM EDTA (pH 7.4, buffer 2). The resulting pellet was resuspended in buffer 2 and protein concentration was measured (BCA protein Assay, Pierce). The homogenate was kept cold during the whole procedure. The membranes were kept at −80° C. until use. Assay was performed in a 384 well Optiplate (PerkinElmer) in a total volume of 40 ul. Membranes were mixed with SPA beads. Final concentration of membranes 35 ng/μL final and Final concentration of SPA beads was 0.05 mg/well. Test-compounds were dissolved in DMSO and further diluted in assay buffer (50 mM Hepes, pH 7.4, 1 mM CaCl2, 5 mM MgCl₂, 0.1% OA and 0.02% Tween20). […] The final mixture was incubated for 120 min with shaking at 400 rpm at 25° C. prior to centrifugation (1500 rpm, 10 min). Samples were analyzed on TopCounter™ (Packard). The […] was calculated using (one site binding competition analysis) GraphPad Prism5 as a measure of receptor affinity.

Binder	IC50
K([AEEA-γGlu-C20 diacid])CNTATCATQRLARFLRHSSPNFGAIPSSTPVGSNTY-NH2 (disulfide 2-7; N-terminus assumed; SMILES CC[C@H](C)[C@H](NC(=O)[C@H](C)NC(=O)CNC(=O)[C@H](Cc1ccccc1)NC(=O)[C@H](CC(N)=O)NC(=O)[C@@H]1CCCN1C(=O)[C@H](CO)NC(=O)[C@H](CO)NC(=O)[C@H](Cc1c[nH]cn1)NC(=O)[C@H](CCCNC(=N)N)NC(=O)[C@H](CC(C)C)NC(=O)[C@H](Cc1ccccc1)NC(=O)[C@H](CCCNC(=N)N)NC(=O)[C@H](C)NC(=O)[C@H](CC(C)C)NC(=O)[C@H](CCCNC(=N)N)NC(=O)[C@H](CCC(N)=O)NC(=O)[C@@H](NC(=O)[C@H](C)NC(=O)[C@@H]1CSSC[C@H](NC(=O)[C@@H](N)CCCCNC(=O)COCCOCCNC(=O)CC[C@H](NC(=O)CCCCCCCCCCCCCCCCCCC(=O)O)C(=O)O)C(=O)N[C@@H](CC(N)=O)C(=O)N[C@@H]([C@@H](C)O)C(=O)N[C@@H](C)C(=O)N[C@@H]([C@@H](C)O)C(=O)N1)[C@@H](C)O)C(=O)N1CCC[C@H]1C(=O)N[C@@H](CO)C(=O)N[C@@H](CO)C(=O)N[C@H](C(=O)N1CCC[C@H]1C(=O)N[C@H](C(=O)NCC(=O)N[C@@H](CO)C(=O)N[C@@H](CC(N)=O)C(=O)N[C@H](C(=O)N[C@@H](Cc1ccc(O)cc1)C(N)=O)[C@@H](C)O)C(C)C)[C@@H](C)O, also called compound 64)	56 nM
K([AEEA-γGlu-C20 diacid])CNTATCATQRLANFLRHSSPNFGAIPSPTNVGPNTY-NH2 (disulfide 2-7; N-terminus assumed; SMILES CC[C@H](C)[C@H](NC(=O)[C@H](C)NC(=O)CNC(=O)[C@H](Cc1ccccc1)NC(=O)[C@H](CC(N)=O)NC(=O)[C@@H]1CCCN1C(=O)[C@H](CO)NC(=O)[C@H](CO)NC(=O)[C@H](Cc1c[nH]cn1)NC(=O)[C@H](CCCNC(=N)N)NC(=O)[C@H](CC(C)C)NC(=O)[C@H](Cc1ccccc1)NC(=O)[C@H](CC(N)=O)NC(=O)[C@H](C)NC(=O)[C@H](CC(C)C)NC(=O)[C@H](CCCNC(=N)N)NC(=O)[C@H](CCC(N)=O)NC(=O)[C@@H](NC(=O)[C@H](C)NC(=O)[C@@H]1CSSC[C@H](NC(=O)[C@@H](N)CCCCNC(=O)COCCOCCNC(=O)CC[C@H](NC(=O)CCCCCCCCCCCCCCCCCCC(=O)O)C(=O)O)C(=O)N[C@@H](CC(N)=O)C(=O)N[C@@H]([C@@H](C)O)C(=O)N[C@@H](C)C(=O)N[C@@H]([C@@H](C)O)C(=O)N1)[C@@H](C)O)C(=O)N1CCC[C@H]1C(=O)N[C@@H](CO)C(=O)N1CCC[C@H]1C(=O)N[C@H](C(=O)N[C@@H](CC(N)=O)C(=O)N[C@H](C(=O)NCC(=O)N1CCC[C@H]1C(=O)N[C@@H](CC(N)=O)C(=O)N[C@H](C(=O)N[C@@H](Cc1ccc(O)cc1)C(N)=O)[C@@H](C)O)C(C)C)[C@@H](C)O, also called compound 56)	2.09 nM
K([AEEA-γGlu-C20 diacid])CNTATCATQRLANFLRHSSPNFGAIPPSTPVGSNTY-NH2 (disulfide 2-7, also called compound 53)	5.38 nM
K([AEEA-γGlu-C20 diacid])CNTATCATQRLANFLRHSSPNFGAIPPSTNVGPNTY-NH2 (disulfide 2-7; N-terminus assumed; SMILES CC[C@H](C)[C@H](NC(=O)[C@H](C)NC(=O)CNC(=O)[C@H](Cc1ccccc1)NC(=O)[C@H](CC(N)=O)NC(=O)[C@@H]1CCCN1C(=O)[C@H](CO)NC(=O)[C@H](CO)NC(=O)[C@H](Cc1c[nH]cn1)NC(=O)[C@H](CCCNC(=N)N)NC(=O)[C@H](CC(C)C)NC(=O)[C@H](Cc1ccccc1)NC(=O)[C@H](CC(N)=O)NC(=O)[C@H](C)NC(=O)[C@H](CC(C)C)NC(=O)[C@H](CCCNC(=N)N)NC(=O)[C@H](CCC(N)=O)NC(=O)[C@@H](NC(=O)[C@H](C)NC(=O)[C@@H]1CSSC[C@H](NC(=O)[C@@H](N)CCCCNC(=O)COCCOCCNC(=O)CC[C@H](NC(=O)CCCCCCCCCCCCCCCCCCC(=O)O)C(=O)O)C(=O)N[C@@H](CC(N)=O)C(=O)N[C@@H]([C@@H](C)O)C(=O)N[C@@H](C)C(=O)N[C@@H]([C@@H](C)O)C(=O)N1)[C@@H](C)O)C(=O)N1CCC[C@H]1C(=O)N1CCC[C@H]1C(=O)N[C@@H](CO)C(=O)N[C@H](C(=O)N[C@@H](CC(N)=O)C(=O)N[C@H](C(=O)NCC(=O)N1CCC[C@H]1C(=O)N[C@@H](CC(N)=O)C(=O)N[C@H](C(=O)N[C@@H](Cc1ccc(O)cc1)C(N)=O)[C@@H](C)O)C(C)C)[C@@H](C)O, also called compound 55)	2.17 nM
K([AEEA-γGlu-C20 diacid])CNTATCATQRLANFLRHSSPNFGAIPSSTNVGSETY-NH2 (disulfide 2-7; N-terminus assumed; SMILES CC[C@H](C)[C@H](NC(=O)[C@H](C)NC(=O)CNC(=O)[C@H](Cc1ccccc1)NC(=O)[C@H](CC(N)=O)NC(=O)[C@@H]1CCCN1C(=O)[C@H](CO)NC(=O)[C@H](CO)NC(=O)[C@H](Cc1c[nH]cn1)NC(=O)[C@H](CCCNC(=N)N)NC(=O)[C@H](CC(C)C)NC(=O)[C@H](Cc1ccccc1)NC(=O)[C@H](CC(N)=O)NC(=O)[C@H](C)NC(=O)[C@H](CC(C)C)NC(=O)[C@H](CCCNC(=N)N)NC(=O)[C@H](CCC(N)=O)NC(=O)[C@@H](NC(=O)[C@H](C)NC(=O)[C@@H]1CSSC[C@H](NC(=O)[C@@H](N)CCCCNC(=O)COCCOCCNC(=O)CC[C@H](NC(=O)CCCCCCCCCCCCCCCCCCC(=O)O)C(=O)O)C(=O)N[C@@H](CC(N)=O)C(=O)N[C@@H]([C@@H](C)O)C(=O)N[C@@H](C)C(=O)N[C@@H]([C@@H](C)O)C(=O)N1)[C@@H](C)O)C(=O)N1CCC[C@H]1C(=O)N[C@@H](CO)C(=O)N[C@@H](CO)C(=O)N[C@H](C(=O)N[C@@H](CC(N)=O)C(=O)N[C@H](C(=O)NCC(=O)N[C@@H](CO)C(=O)N[C@@H](CCC(=O)O)C(=O)N[C@H](C(=O)N[C@@H](Cc1ccc(O)cc1)C(N)=O)[C@@H](C)O)C(C)C)[C@@H](C)O, also called compound 26)	25.3 nM
K([AEEA-γGlu-C20 diacid])CNTATCATQRLANFLRHSSPNFGAIPSPTPVGSNTY-NH2 (disulfide 2-7; N-terminus assumed; SMILES CC[C@H](C)[C@H](NC(=O)[C@H](C)NC(=O)CNC(=O)[C@H](Cc1ccccc1)NC(=O)[C@H](CC(N)=O)NC(=O)[C@@H]1CCCN1C(=O)[C@H](CO)NC(=O)[C@H](CO)NC(=O)[C@H](Cc1c[nH]cn1)NC(=O)[C@H](CCCNC(=N)N)NC(=O)[C@H](CC(C)C)NC(=O)[C@H](Cc1ccccc1)NC(=O)[C@H](CC(N)=O)NC(=O)[C@H](C)NC(=O)[C@H](CC(C)C)NC(=O)[C@H](CCCNC(=N)N)NC(=O)[C@H](CCC(N)=O)NC(=O)[C@@H](NC(=O)[C@H](C)NC(=O)[C@@H]1CSSC[C@H](NC(=O)[C@@H](N)CCCCNC(=O)COCCOCCNC(=O)CC[C@H](NC(=O)CCCCCCCCCCCCCCCCCCC(=O)O)C(=O)O)C(=O)N[C@@H](CC(N)=O)C(=O)N[C@@H]([C@@H](C)O)C(=O)N[C@@H](C)C(=O)N[C@@H]([C@@H](C)O)C(=O)N1)[C@@H](C)O)C(=O)N1CCC[C@H]1C(=O)N[C@@H](CO)C(=O)N1CCC[C@H]1C(=O)N[C@H](C(=O)N1CCC[C@H]1C(=O)N[C@H](C(=O)NCC(=O)N[C@@H](CO)C(=O)N[C@@H](CC(N)=O)C(=O)N[C@H](C(=O)N[C@@H](Cc1ccc(O)cc1)C(N)=O)[C@@H](C)O)C(C)C)[C@@H](C)O, also called compound 54)	4.38 nM
